These are literature values, as cited in publication PMC1976947.

The series deals with G-CSF receptor (Mus musculus) (UniProt P40223).
Chain of UniProt P40223 (P40223 26-837): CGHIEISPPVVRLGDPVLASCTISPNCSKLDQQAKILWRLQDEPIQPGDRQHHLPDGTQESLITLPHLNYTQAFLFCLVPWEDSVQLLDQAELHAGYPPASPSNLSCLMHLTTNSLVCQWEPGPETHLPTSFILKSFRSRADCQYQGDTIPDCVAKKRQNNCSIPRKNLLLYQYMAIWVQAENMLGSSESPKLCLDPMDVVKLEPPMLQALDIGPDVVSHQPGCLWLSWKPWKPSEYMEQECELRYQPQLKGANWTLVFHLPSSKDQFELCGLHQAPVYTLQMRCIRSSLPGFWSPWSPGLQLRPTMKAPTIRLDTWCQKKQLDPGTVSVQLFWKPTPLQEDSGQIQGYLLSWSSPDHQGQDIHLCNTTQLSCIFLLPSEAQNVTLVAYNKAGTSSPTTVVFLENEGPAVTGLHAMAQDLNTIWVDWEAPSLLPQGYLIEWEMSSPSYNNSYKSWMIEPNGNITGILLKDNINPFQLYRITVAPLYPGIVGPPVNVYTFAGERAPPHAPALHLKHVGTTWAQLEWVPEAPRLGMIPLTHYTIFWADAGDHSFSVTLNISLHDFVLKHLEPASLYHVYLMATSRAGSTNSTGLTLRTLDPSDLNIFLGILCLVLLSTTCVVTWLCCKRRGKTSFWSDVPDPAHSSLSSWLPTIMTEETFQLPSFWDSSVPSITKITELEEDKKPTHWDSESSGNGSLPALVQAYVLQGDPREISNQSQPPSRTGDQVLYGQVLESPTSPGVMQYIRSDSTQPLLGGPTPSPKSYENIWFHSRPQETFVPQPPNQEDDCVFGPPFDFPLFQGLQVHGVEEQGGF

Chain of G-CSF (P09919 31-207): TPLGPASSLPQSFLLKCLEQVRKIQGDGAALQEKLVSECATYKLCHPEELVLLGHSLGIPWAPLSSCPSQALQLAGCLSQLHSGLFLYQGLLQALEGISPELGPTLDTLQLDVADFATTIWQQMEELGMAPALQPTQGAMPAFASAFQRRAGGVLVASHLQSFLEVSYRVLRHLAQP

In the case of G-CSF (from UniProt P09919), the Kd is 0.07 nM.

As a reminder, the Kd is a measure of binding affinity in units of concentration.
